Experimental data taken from patent publication US20260242478A1 (published 2026).

Experiments:
006 PSMA Fab [1] = target: T1, 006 PSMA Fab; assay: clonal phage ELISA; biotinylated PSMA Fab captured on neutravidin plate, blocking buffer alone; bound phage detected with anti-M13 HRP
T1 construct: In the phage ELISA the PSMA Fab was biotinylated and captured on neutravidin coated plates; also called Anti-PSMA Fab
Protocol: (§1) Clonal phage were harvested as crude supernatants and screened via standard ELISAs. […] Prior to the addition of clonal phage. wells were incubated with blocking buffer and PSMA antigen or blocking buffer alone. Without washing or aspirating, clonal phage supernatants were then added to the wells and incubated for a short time. Wells were then washed followed by detection of bound phage using a horse radish conjugated anti-M13 antibody.

006 PSMA Fab [2] = target: T1, 006 PSMA Fab; assay: clonal phage ELISA; biotinylated PSMA Fab captured on neutravidin plate, wells pre-incubated with PSMA antigen as competitor; bound phage detected with anti-M13 HRP
Protocol: as §1

Anti-PSMA Fab [3] = target: T2, Anti-PSMA Fab (biotinylated (site not stated)); assay: clonal phage ELISA on plate-captured biotinylated PSMA Fab, blocking buffer alone
T2 construct: Biotinylated PSMA Fab captured on neutravidin coated plates; also called 006 PSMA Fab

Anti-PSMA Fab [4] = target: T2, Anti-PSMA Fab; assay: clonal phage ELISA on plate-captured biotinylated PSMA Fab, wells pre-incubated with PSMA antigen as competitor
Protocol: as §1

Row | Binder | Phage binding ELISA signal, Anti-PSMA Fab (006 PSMA Fab [1]) | Phage binding ELISA signal, Anti-PSMA Fab with PSMA antigen (006 PSMA Fab [2]) | Phage binding ELISA signal, Anti-PSMA Fab (Anti-PSMA Fab [3]) | phage binding ELISA signal (Anti-PSMA Fab with PSMA) (Anti-PSMA Fab [4])
1 | ILPRCEPYWMCTGL [Phage-3950] | 0.872 | 0.0634 |  | 
2 | AVHMCAPSWMCSGF [Phage-3952] | 0.87 | 0.0825 |  | 
3 | EFRECRPPWMCQGL [Phage-3944] | 0.899 | 0.0789 |  | 
4 | TVRSCTPPWMCEGF [Phage-3951] | 0.871 | 0.0856 |  | 
5 | TAPWCQPRWMCDGF (tested as crude clonal phage supernatant) [Phage-3958] |  |  | 0.828 | 0.0701
6 | STMSCVPSWMCLGF [Phage-3946] | 0.885 | 0.0614 |  | 
7 | LTVYCTPEWMCSGW [Phage-3948] | 0.882 | 0.0749 |  | 
8 | DSLVCQPRWMCVGF [Phage-3945] | 0.895 | 0.063 |  | 
9 | TQVKCIPLWMCDGF [Phage-3947] | 0.885 | 0.0544 |  | 
10 | EGGYCVPTWMCSGF (tested as crude clonal phage supernatant) [Phage-3960] |  |  | 0.822 | 0.0786
11 | GWVGCVPLWMCEGF [Phage-3949] | 0.878 | 0.0698 |  | 
12 | DVLMCKPEWMCLGY (tested as crude clonal phage supernatant) [Phage-3956] |  |  | 0.837 | 0.0628
13 | LVSWCTPPWMCEGV (tested as crude clonal phage supernatant) [Phage-3961] |  |  | 0.818 | 0.131
14 | TIQWCEPLWMCRGF (tested as crude clonal phage supernatant) [Phage-3957] |  |  | 0.835 | 0.0643
15 | DQVMCIPRWMCEGF [Phage-3943] | 0.904 | 0.0676 |  | 
16 | YERVCVPSWMCNSL (tested as crude clonal phage supernatant) [Phage-3955] |  |  | 0.838 | 0.0845
17 | GDIQCRPLWMCDGL [Phage-3942] | 0.907 | 0.128 |  | 
18 | AEMLCVPPWMCKAF (tested as crude clonal phage supernatant) [Phage-3959] |  |  | 0.823 | 0.0615
19 | FFQVCEPQWMCLGF (tested as crude clonal phage supernatant) [Phage-3954] |  |  | 0.854 | 0.0548
20 | GLPQCVPPWMCDGF (tested as crude clonal phage supernatant) [Phage-3953] |  |  | 0.864 | 0.056
